In patent US20240400652A1 (VIR BIOTECHNOLOGY, published 2024):

B1: SARS-CoV-2 S304 (antibody, V domains shown)
VH: EVQLVESGGGLVQPGGSLRLSCAASGFTFSSYDMHWVRQTTGKGLEWVSTIGTAGDTYYPDSVKGRFTISREDAKNSLYLQMNSLRAGDTAVYYCARGDSSGYYYYFDYWGQGTLLTVSS
VL: DIQMTQSPSSLSAAVGDRVTITCRASQSIGSYLNWYQQKPGKAPKLLIYAASSLQSGVPSRFSGSGSGTDFTLTISSLQPEDFAIYYCQQSYVSPTYTFGPGTKVDIK
B2: SARS-CoV-2 S315 (antibody, V domains shown)
VH: EVQLVESGGGLVQPGGSLRLSCAASGFTFSNYWMTWVRQAPGKGLEWVANIKQDGSEKYYVDSVKGRFTISRDNAKNSLYLQMNSLRAEDTAVYYCARDLWWNDQAHYYGMDVWGQGTTVTVSS
VL: SYELTQPPSVSVSPGQTARITCSGDAFPNQYAYWYQQKPGQAPVMLIYKDSERPSGIPERFFGSSSGTTVTLTIRGVQAEDEADYYCQSADSSGTVFGGGTKLTVL

Molecular target: SARS-CoV-2 Spike protein on pseudotyped virus (SARS-CoV-2, UniProt P0DTC2 14-1273)
Assay: cell-based or functional assay

Row | Binder | IC50, neutralization of SARS-CoV-2pp, DBT-ACE2 cells | IC50, neutralization of SARS-CoV-2pp, DBT-ACE2 cells (further assays)
1 | B1 | ~17 µg/mL | –
2 | B2 | – | 25.1 µg/mL
